According to patent US20070275049A1:

Key:
[1] = biological target: EGFR-derived peptide(s) on MHC class I (H-2Kb/H-2Db) of EGFR-positive LL/2c tumor cells (mouse)
[2] = biological target: EGFR-derived peptide(s) on MHC class I of EGFR-positive MA782/5S tumor cells (mouse)

With “spleen T cells of mice immunized by chEGFR molecular vaccine (cells without a defined receptor)” as the substance, how does the specific cytocidal activity, standard Cr51 test, at the ratio of 40:1 [1] read?
Its specific cytocidal activity, standard Cr51 test, at the ratio of 40:1 is 40.3%.

And the specific cytocidal activity, standard Cr51 test, at the ratio of 40:1 [2]?
The specific cytocidal activity, standard Cr51 test, at the ratio of 40:1 was 42.8%.
